Six molecules from patent US20140271467A1 (Stanford University, published 2014) can be followed below.

Substitutions are numbered along the chain they refer to.

Experiment [1] concerns the target T1, biotinylated human CD20 extracellular loop peptide (amino acids 165-185) (human, biotin at the C-terminus (printed as SEQ ID NO: 1-biotin)).
T1 construct: Chemically synthesized; also called CD20 peptide; biotin-CD20 peptide
T1 peptide: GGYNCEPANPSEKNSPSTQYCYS
As to the kind of experiment: selection from the G4 library against the CD20 peptide. The text has this:
The human CD20 peptide extracellular loop was synthesized (amino acids: 165-185; […] (SEQ ID NO: 1)-biotin) and purified by RP-HPLC on a C-18 column and lyophilized as per the published procedure (29). This peptide was characterized by ESI-MS and immobilized on streptavidin magnetic beads for screening of FN3 binders. […] Briefly, yeast displaying 2.5×10⁸ FN3 mutants were sorted for binding to magnetic beads with immobilized CD20 peptide, followed by fluorescence-activated cell sorting for full-length proteins using the C-terminal c-myc epitope. Plasmid DNA from selected clones was recovered, mutated by error-prone PCR of either the entire FN3 gene or the paratope loops, and reintroduced into yeast by electroporation with homologous recombination. As binder enrichment progressed in later evolutionary cycles, fluorescence-activated cell sorting for binding to soluble CD20 peptide was also used. Six cycles of selection and mutation were performed. Plasmid DNA was recovered, transformed into bacteria, and individual clones were sequenced by standard DNA sequencing methods.

Experiment [2] concerns the target T1, biotinylated human CD20 extracellular …. In words: affinity titration with yeast surface display and flow cytometry, biotinylated CD20.
The target of experiment [3] is T2, human CD20 antigen on live Ramos cells (human, UniProt P11836 1-297).
T2 construct: whole, on cells; Endogenous CD20 on Ramos cells (ATCC); also called cellular CD20; huCD20
T2 sequence (looked up): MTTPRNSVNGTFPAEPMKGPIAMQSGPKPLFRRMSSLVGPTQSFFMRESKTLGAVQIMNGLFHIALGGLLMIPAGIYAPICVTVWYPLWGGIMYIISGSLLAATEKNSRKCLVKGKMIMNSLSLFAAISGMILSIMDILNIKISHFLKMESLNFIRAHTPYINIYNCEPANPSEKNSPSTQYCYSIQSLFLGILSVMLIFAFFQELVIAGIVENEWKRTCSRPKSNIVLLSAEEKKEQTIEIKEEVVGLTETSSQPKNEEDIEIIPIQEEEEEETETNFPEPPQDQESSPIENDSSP
In words: radiotracer binding to Ramos cells.

The target in experiment [4] is T2, human CD20 antigen on live Ramos cells. In words: flow cytometry on live Ramos cells, 1:1 fit; flow cytometry, live Ramos cells (cellular CD20). The procedure:
FIG. 1C illustrates a graph showing the antigen-binding activity of FN3CD20. Ramos cells were incubated with the indicated concentration (0.5-80 nM) of FITC-FN3CD20 for 1 h at 4° C. Cells were washed and analyzed by flow cytometry. The data are expressed as the mean±standard deviation of three independent experiments. Data were normalized with respect to saturated fluorescence intensity (plateau) observed at the highest target concentrations.
For orientation: A flow cytometer gives signals particle by particle.

Experiment [5] concerns the target T1, biotinylated human CD20 extracellular …. In words: SPR (Biacore), biotin-CD20 peptide on a streptavidin chip, 1:1 fit, 25 C; SPR, CD20 peptide (amino acids 165-185). The procedure:
FN3CD20 protein (0.4, 2, 10, 50, 250, and 750 nM) was diluted in HBS and injected into the chip at a flow rate of 15 μL/min for 1 min at 25° C.
All measurements were performed at 25° C. on a BIAcore 100 instrument and streptavidin chip (GE healthcare Biosciences, PA). The streptavidin chip was first cleaned with three consecutive 1-min. injections of 40 μl, of a solution of 1 M NaCl in 50 mM NaOH before the immobilization procedure. Five minutes after the cleaning process when the sensorgram reached a stable baseline, biotynalated CD20 peptide, diluted in running buffer to 20 μg/mL, was injected for 7 min. using a flow rate of 5 μL/min. The same procedure was performed for immobilization of non-specific CD20 peptide, except that the non-specific CD20 peptide was diluted in running buffer to 200 μg/ml. To attain maximum immobilization level of biotin peptides on the surface of streptavidin, multiple injections were performed.
Target antigen of CD20 peptide was immobilized on a streptavidin chip. FN3CD20 was analyzed in 10 mM HEPES, pH 7.4, 150 mM NaCl, 0.005% Tween 20 at […] concentrations between 0 and 750 nM, and non-specific FN3 was used as control. The flow-rate was 15 μl/min; association and dissociation times were 1 and 2 min, respectively. […] The data were analyzed using BIAeval (BIAcore) software, with a global fitting to the 1:1 binding model. […]

For orientation: Kd means the constant that tells how readily two partners part at equilibrium.

B1: FN3CD20-01 (fibronectin type 3 domain clone selected against the CD20 peptide from the G4 library) (designed binder)
chain: ASVSDVPRDLEVVAATPTSLLISWHYTCAGSYRITYGETGGNSPVQEFTVPGSWKTATISGLKPGVDYTITVYAVTHYYGWDRYSHPISINYRTGSHHHHHH
notes: It was a library clone during selection
In the case of B1, the binding result in experiment [1] was “binds”.

B2: FN3CD20-02 (fibronectin type 3 domain clone selected against the CD20 peptide from the G4 library) (designed binder)
chain: B1 chain with G30D, G52W, S53Y, W54V, K55S, T56N, A74V
notes: as for B1
For the molecule B2, in experiment [1], the binding result is “binds”.

B3: FN3CD20-03 (fibronectin type 3 domain clone selected against the CD20 peptide from the G4 library) (designed binder)
chain: ASVSDVPRDLGVVAATPTSLLISWHSSDVSYYRITYGETGGNSPVQEFTVPYWFTNTTISGLKPGVDYTITVYAATYRDCSSEPISINYRTGSHHHHHH
notes: as for B1
For the molecule B3, the binding result in experiment [1] is “binds”.

B4: FN3CD20 clone displayed on the yeast surface (designed binder, not shown: large carriers)
chain: ASVSDVPRDLEVVAATPTSLLISWCRQRCADSYRITYGETGGNSPVQEFTVPGSWKTATISGLKPGVDYTITVYVVTHYYGWDRYSHPISINYRTGSHHHHHH
notes: also called one clone; this clone
In experiment [2], B4 had a Kd of 14.3 nM.

B5: 64Cu-Do-FN3CD20 (64Cu-DOTA-labelled FN3CD20) (designed binder)
chain: B4 chain
modifications: DOTA conjugated to primary amines (1.8 DOTA molecules per FN3 protein), chelating 64Cu
notes: also called 64Cu-FN3CD20; 64Cu-FN3
As to B5, the binding result in experiment [3] is recorded as “binds”.

B6: FN3CD20 (engineered fibronectin type 3 domain binding CD20, soluble, C-terminal His6 tag) (designed binder)
chain: B4 chain
notes: Made in E. coli with a His6 tag; also called FN3 scaffold
Turning to B6, the Kd in experiment [4] is 20 nM; in experiment [5], 22 nM.
